In assay [1] the test system is SNX27_PDZ. As to the kind of experiment: nHU-MS, SNX27_PDZ bait, total Jurkat extracts, series 1. Type of assay: binding, human. The conditions noted are these: Jurkat, series 1; for BI_HU / FC_HU (log2 fold change) / Ratio_HU: n = 6; for pKapp_significant_binders_HU: apparent, Eq. 2, significant binders (1 σ, P < 0.05). As to the method:
The empty His6-AviTag-MBP-TEV vector was used to produce biotinylated MBP for control experiments. Proteins were coexpressed with BirA biotin ligase (PET21a-BirA, Addgene, no. 20857) in Escherichia coli BL21(DE3) cells. At isopropyl-β-D-thiogalactopyranoside (IPTG) induction (1 mM IPTG at 18°C overnight), 50 μM biotin was added to the media. Harvested cells were lysed in a buffer containing 50 mM tris (pH 7.5), 150 to 300 mM NaCl, 50 μM biotin, 2 mM β-mercaptoethanol, cOmplete EDTA-free protease inhibitor cocktail (Roche, Basel, Switzerland), 1% Triton X-100, and trace amount of deoxyribonuclease, ribonuclease, and lysozyme. Lysates were frozen at −20°C before further purification steps. Lysates were sonicated and centrifuged for clarification. Expressed proteins were captured on in-house prepacked Ni-IDA (Protino Ni-IDA Resin, Macherey-Nagel, Duren, Germany) columns and were washed with at least 10 column volumes of cold wash buffer [50 mM tris (pH 7.5), 150 mM NaCl, and 2 mM β-mercaptoethanol] before elution with 250 mM imidazole. The Ni elution was collected directly on a preequilibrated amylose column (amylose high flow resin, New England Biolabs, Ipswich, MA). Amylose column was washed with 5 column volumes of cold wash buffer before fractionated elution in a buffer containing 25 mM Hepes (pH 7.5), 150 mM NaCl, 1 mM TCEP, 10% glycerol, 5 mM maltose, and cOmplete EDTA-free protease inhibitor cocktail. The concentration of proteins was determined by their ultraviolet absorption at 280 nm before aliquots were snap-frozen in liquid nitrogen and stored at −80°C.
For saturating streptavidin resin with biotinylated peptides or biotin, 50 μl of streptavidin resin was mixed with biotin or peptide at 40 to 60 μM concentration in 6 to 6.5 resin volume for 60 min. To saturate streptavidin resin with biotinylated proteins, 50 μl of streptavidin resin (Streptavidin Sepharose High Performance, Cytiva) was mixed with biotinylated MBP or MBP-PDZ at 40 to 50 μM concentration in 20× resin volume for 60 min. After saturation, resins were washed a single time [10 resin volume, holdup buffer: 50 mM tris (pH 7.5), 300 mM NaCl, and 1 mM TCEP, 0.22-μm filtered] and were depleted with biotin (10 resin volume, 10 min, holdup buffer supplemented with 100 μM biotin). Last, resins were washed two times (10 resin volume, holdup buffer).
For single-point nHU experiments carried out at ~10 μM bait concentration, 50 μl of saturated streptavidin resin was mixed with 200 μl of cell lysate (2 mg/ml). Titration experiments were carried out by mixing control and bait-saturated resin and keeping the total resin volume constant; e.g., ~5 μM bait concentration can be achieved by mixing 25 μl of bait-saturated streptavidin resin with 25 μl of control resin and 200 μl of cell lysate (2 mg/ml). Control and bait-saturated resins were prepared in larger amounts, and a serial dilution was prepared with these presaturated resins to achieve different resin ratios.
Unless specified elswhere, the nHU mixture was incubated at 4°C for 2 hours. After the incubation ended, the resin was separated from the supernatant by a brief centrifugation (15 s, 2000 g). Then, half of the supernatant was removed by pipetting without any delay to avoid any resin contamination; e.g., 100 μl of supernatant is collected if 200 μl of cell lysate was used as analyte. Alternatively, the supernatant can be centrifuged an additional time to clarify it further, removing any possible resin contamination. In principle, the separation of the supernatant should be as fast as possible since any delay can perturb the equilibrium. […] Alternatively, the resin can be separated from the supernatant using filter plates (e.g., various products of Millipore, Burlington, MA) or spin columns (e.g., Pierce spin cups—cellulose acetate filter from Thermo Fisher Scientific, Waltham, MA) to achieve faster separation. […]

For assay [2], the system named is SNX27_PDZ. As to the kind of experiment: AP-MS control pull-down on leftover resin, SNX27_PDZ bait, total Jurkat extracts. Type of assay: binding, human. The conditions noted are these: Jurkat, series 1; leftover resin; n = 6. The procedure:
Leftover beads from nHU-MS experiments were washed three times immediately after the separation of the supernatant [10 resin volume in buffer containing 50 mM tris (pH 8.5), 150 mM NaCl, 1% Triton X-100, 10× cOmplete EDTA-free protease inhibitor cocktail, 2 mM EDTA, and 1 mM TCEP]. Then, the beads were washed two times [10 resin volume buffer containing 50 mM tris (pH 8.5), 150 mM NaCl, and 1 mM TCEP]. Last, captured protein was eluted from the resin in two steps, and the eluted fractions were pooled. For each elution, the beads were incubated for 30 min with three resin volume buffer containing 20 mM tris (pH 8.5), 100 mM NaCl, 500 μM TCEP, and 8 M urea. Between each step, the beads were separated by mild centrifugation, and the supernatant was removed by gentle pipetting.
The nHU samples were precipitated with trichloroacetic acid (TCA) 20% overnight at 4°C and centrifuged at 14,000 rpm for 10 min at 4°C. The protein pellets were washed twice with 1 ml of cold acetone and air-dried. The protein extracts were solubilized in 8 M urea, reduced with 5 mM TCEP for 30 min, and alkylated with 10 mM iodoacetamide for 30 min in the dark. Double digestion was performed at 37°C with 500 ng of endoproteinase Lys-C (Wako, Richmond, USA) for 4 hours, followed by fourfold dilution and an overnight digestion with 500 ng of trypsin (Promega, Charbonnieres les Bains, France). Peptide mixtures were then desalted on a C18 spin-column and dried on a speed vacuum.
Samples were analyzed using an Ultimate 3000 nano-RSLC coupled in line via a nano-electrospray ionization source, with an LTQ-Orbitrap ELITE mass spectrometer (Thermo Fisher Scientific, San Jose, CA) or with the Orbitrap Exploris 480 mass spectrometer (Thermo Fisher Scientific, Bremen, Germany) equipped with a high field asymmetric ion mobility spectrometry (FAIMS) module. Peptide mixtures were injected in 0.1% trifluoroacetic acid on a C18 Acclaim PepMap100 trap column [75 μm inner diameter (ID) × 2 cm, 3 μm, 100 Å, Thermo Fisher Scientific] for 3 min at 5 μl/min with 2% acetonitrile (ACN) and 0.1% formic acid (FA) in H2O and then separated on a C18 Acclaim PepMap100 nano-column (75 μm ID × 50 cm, 2.6 μm, 150 Å, Thermo Fisher Scientific) at 300 nl/min and 40°C with a 90-min linear gradient from 5 to 30% buffer B (A: 0.1% FA in H2O/B: 80% ACN, 0.1% FA in H2O) and regeneration at 5% B. Spray voltage was set to 2.1 kV and heated capillary temperature was set to 280°C.
For the Orbitrap Elite, the mass spectrometer was operated in positive ionization mode in data-dependent mode with survey scans from mass/charge ratio (m/z) 350 to 1500 acquired in the Orbitrap at a resolution of 120,000 at m/z 400. The 20 most intense peaks from survey scans were selected for further fragmentation in the linear ion trap with an isolation window of 2.0 Da and were fragmented by collision-induced dissociation (CID) with a normalized collision energy of 35% (TOP 20 CID method). Unassigned and single-charged states were excluded from fragmentation. The ion target value for the survey scans (in the Orbitrap) and the MS2 mode (in the linear ion trap) were set to 1E6 and 5E3, respectively, and the maximum injection time was set to 100 ms for both scan modes. Dynamic exclusion was set to 20 s after one repeat count with mass width at ±10 parts per million (ppm).
Proteins were identified by database search using SequestHT (Thermo Fisher Scientific) with Proteome Discoverer 2.4 software (PD2.4, Thermo Fisher Scientific) on the human FASTA database downloaded from UniProt (reviewed, release 2021_06_03, 20380 entries, https://uniprot.org/, complemented with sequences of likely contaminants, such as MBP, streptavidin, or trypsin). Precursor and fragment mass tolerances were set at 7 ppm and 0.6 Da, respectively, and up to two missed cleavages were allowed. […]

These results are taken from paper PMC9770967, “Native holdup (nHU) to measure binding affinities from cell extracts” (Science Advances, 2022).

B1: Microtubule-associated protein 4: full-length endogenous prey, gene MAP4 (protein, UniProt P27816 1-1152, looked up)
chain: MADLSLADALTEPSPDIEGEIKRDFIATLEAEAFDDVVGETVGKTDYIPLLDVDEKTGNSESKKKPCSETSQIEDTPSSKPTLLANGGHGVEGSDTTGSPTEFLEEKMAYQEYPNSQNWPEDTNFCFQPEQVVDPIQTDPFKMYHDDDLADLVFPSSATADTSIFAGQNDPLKDSYGMSPCNTAVVPQGWSVEALNSPHSESFVSPEAVAEPPQPTAVPLELAKEIEMASEERPPAQALEIMMGLKTTDMAPSKETEMALAKDMALATKTEVALAKDMESPTKLDVTLAKDMQPSMESDMALVKDMELPTEKEVALVKDVRWPTETDVSSAKNVVLPTETEVAPAKDVTLLKETERASPIKMDLAPSKDMGPPKENKKETERASPIKMDLAPSKDMGPPKENKIVPAKDLVLLSEIEVAQANDIISSTEISSAEKVALSSETEVALARDMTLPPETNVILTKDKALPLEAEVAPVKDMAQLPETEIAPAKDVAPSTVKEVGLLKDMSPLSETEMALGKDVTPPPETEVVLIKNVCLPPEMEVALTEDQVPALKTEAPLAKDGVLTLANNVTPAKDVPPLSETEATPVPIKDMEIAQTQKGISEDSHLESLQDVGQSAAPTFMISPETVTGTGKKCSLPAEEDSVLEKLGERKPCNSQPSELSSETSGIARPEEGRPVVSGTGNDITTPPNKELPPSPEKKTKPLATTQPAKTSTSKAKTQPTSLPKQPAPTTIGGLNKKPMSLASGLVPAAPPKRPAVASARPSILPSKDVKPKPIADAKAPEKRASPSKPASAPASRSGSKSTQTVAKTTTAAAVASTGPSSRSPSTLLPKKPTAIKTEGKPAEVKKMTAKSVPADLSRPKSTSTSSMKKTTTLSGTAPAAGVVPSRVKATPMPSRPSTTPFIDKKPTSAKPSSTTPRLSRLATNTSAPDLKNVRSKVGSTENIKHQPGGGRAKVEKKTEAAATTRKPESNAVTKTAGPIASAQKQPAGKVQIVSKKVSYSHIQSKCGSKDNIKHVPGGGNVQIQNKKVDISKVSSKCGSKANIKHKPGGGDVKIESQKLNFKEKAQAKVGSLDNVGHLPAGGAVKTEGGGSEAPLCPGPPAGEEPAISEAAPEAGAPTSASGLNGHPTLSGGGDQREAQTLDSQIQETSI
modifications: full-length
notes: full-length endogenous prey, gene MAP4
In the case of B1, in assay [1], the BI_HU is recorded as 0.2772, the “FC_HU (log2 fold change)” value is on record as -0.4683, the Ratio_HU is listed as 0.7228 and the pKapp_significant_binders_HU is on record as 4.5849. Also, in assay [2], the “FC_AP (log2 fold change)” value stood at 7.799 and the Ratio_AP is given as 222.732.

B2: PTPRCAP: Protein tyrosine phosphatase receptor type C-associated protein (protein, UniProt Q14761 1-206, looked up)
Protein tyrosine phosphatase …: MALPCTLGLGMLLALPGALGSGGSAEDSVGSSSVTVVLLLLLLLLLATGLALAWRRLSRDSGGYYHPARLGAALWGRTRRLLWASPPGRWLQARAELGSTDNDLERQEDEQDTDYDHVADGGLQADPGEGEQQCGEASSPEQVPVRAEEARDSDTEGDLVLGSPGPASAGGSAEALLSDLHAFAGSAAWDDSARAAGGQGLHVTAL
Take B2: in assay [1], the BI_HU came out at 0.3458, the “FC_HU (log2 fold change)” value was -0.6123, the Ratio_HU is on record as 0.6542 and the pKapp_significant_binders_HU was found to be 4.725. In assay [2], the “FC_AP (log2 fold change)” value was 0.5179 and the Ratio_AP worked out at 1.432.

B3: ARHGEF6: Rho guanine nucleotide exchange factor 6 (protein, UniProt Q15052 1-776, looked up)
Rho guanine nucleotide …: MNPEEQIVTWLISLGVLESPKKTICDPEEFLKSSLKNGVVLCKLINRLMPGSVEKFCLDPQTEADCINNINDFLKGCATLQVEIFDPDDLYSGVNFSKVLSTLLAVNKATEDQLSERPCGRSSSLSAANTSQTNPQGAVSSTVSGLQRQSKTVEMTENGSHQLIVKARFNFKQTNEDELSVCKGDIIYVTRVEEGGWWEGTLNGRTGWFPSNYVREIKSSERPLSPKAVKGFETAPLTKNYYTVVLQNILDTEKEYAKELQSLLVTYLRPLQSNNNLSTVEVTSLLGNFEEVCTFQQTLCQALEECSKFPENQHKVGGCLLSLMPHFKSMYLAYCANHPSAVNVLTQHSDELEQFMENQGASSPGILILTTNLSKPFMRLEKYVTLLQELERHMEDTHPDHQDILKAIVAFKTLMGQCQDLRKRKQLELQILSEPIQAWEGEDIKNLGNVIFMSQVMVQYGACEEKEERYLMLFSNVLIMLSASPRMSGFIYQGKIPIAGTVVTRLDEIEGNDCTFEITGNTVERIVVHCNNNQDFQEWLEQLNRLIRGPASCSSLSKTSSSSCSAHSSFSSTGQPRGPLEPPQIIKPWSLSCLRPAPPLRPSAALGYKERMSYILKESSKSPKTMKKFLHKRKTERKPSEEEYVIRKSTAALEEDAQILKVIEAYCTSANFQQGHGSSTRKDSIPQVLLPEEEKLIIEETRSNGQTIMEEKSLVDTVYALKDEVRELKQENKRMKQCLEEELKSRRDLEKLVRRLLKQTDECIRGESSSKTSILP
As to B3, in assay [1], the BI_HU is 0.3284, the “FC_HU (log2 fold change)” value is listed as -0.5743, the Ratio_HU came out at 0.6716 and the pKapp_significant_binders_HU is recorded as 4.691. Further, in assay [2], the “FC_AP (log2 fold change)” value came to 5.099 and the Ratio_AP is 34.2811.
